The target of assay [1] is murine B7-DC (murine) (UniProt Q9WUL5). Nature of the assay: cell-based or functional assay.
The target is the same in assay [2]. Nature of the assay: flow cytometry on 293T cells transfected with murine B7-DC. For orientation: In flow cytometry, cells or beads pass a laser one at a time.
Assay [3] shares this target. As to the kind of experiment: flow cytometry competition on murine DC; preincubation with sHIgM12, staining with PD-1.Ig as competitor read out.
The target is the same in assay [4]. Nature of the assay: flow cytometry competition on murine bone marrow derived DC; preincubation with PD-1.Ig, staining with sHIgM12 as competitor read out.

Sequence of murine B7-DC (murine) (Q9WUL5 20-247): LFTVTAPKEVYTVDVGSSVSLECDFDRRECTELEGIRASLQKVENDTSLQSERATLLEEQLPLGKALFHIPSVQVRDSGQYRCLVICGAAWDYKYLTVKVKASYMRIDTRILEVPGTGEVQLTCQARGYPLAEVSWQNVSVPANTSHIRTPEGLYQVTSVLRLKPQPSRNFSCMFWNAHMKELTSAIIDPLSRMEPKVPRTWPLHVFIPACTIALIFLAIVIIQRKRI

Regarding “sHIgM12 (human monoclonal IgM antibody, pentameric, purified from patient serum)”, in the assay with murine B7-DC (murine) [1], the GFP+, CD11c+ DC recovered from draining lymph nodes after adoptive transfer stood at 5 fold; the IL-12 p70 release by DC (ELISA of culture supernatants) came to 3 fold; the ability of lymph node DC to induce an antigen-specific T cell response came to 10 fold; the percentage of cellular metabolism (Alamar Blue) maintained 24 hours after cytokine withdrawal from DC was 80%. This substance also showed a percent of transfected cells stained in the assay with murine B7-DC (murine) [2] of 97%. This substance yielded a PD-1 binding left, percent of the level without sHIgM12 with murine B7-DC (murine) [3] of 20%.

In the assay with murine B7-DC (murine) [4], PD-1.Ig fusion protein (Fc fusion) gave a sHIgM12 staining left, percent of the level without PD-1 of 50%.

The record behind these values is patent US20060002928A1.
